The values that follow are results of earlier work, collected in publication PMC3925188.

This data set has as its target Histone H3K4me3 H3K4me3 (Homo sapiens) (UniProt P68431).

Where “and” joins values, the source holds several entries; their conditions need not be identical. Equal entries are not always repeated.

Sequence of KMT2A PHD3 (Q03164 1566-1627): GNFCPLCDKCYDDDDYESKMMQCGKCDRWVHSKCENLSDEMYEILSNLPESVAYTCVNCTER

Take KMT2A PHD3 (from UniProt Q03164): the dissociation constant Kd (commonly the equilibrium constant for the complex coming apart) was 30 µM and 19 µM and 4 µM.
